From US20260001928A1 (CORTERIA PHARMACEUTICALS, priority 2022, published 2026)
*1 amine or outer side, *2 acyl side, *3 side chain or, on linkers, in order; H or OH if unused. Where no end group is shown, it is not given here. Side-chain parts run from the residue outwards. [ ]: non-standard residue; d: D form. The star is where a group is joined. C18 diacid = O=C(O)CCCCCCCCCCCCCCCCC(=O)*; C16 diacid = O=C(O)CCCCCCCCCCCCCCC(=O)*; γGlu = O=C(O)[C@H](CCC(=O)[*:2])N[*:1]; αMeL = CC(C)C[C@](C)(N)C(=O)O; AEEA = NCCOCCOCC(=O)O; Aib = CC(C)(N)C(=O)O

T1: CRF1R receptor (UniProt P34998 24-415, limits assumed)
T1 sequence (looked up): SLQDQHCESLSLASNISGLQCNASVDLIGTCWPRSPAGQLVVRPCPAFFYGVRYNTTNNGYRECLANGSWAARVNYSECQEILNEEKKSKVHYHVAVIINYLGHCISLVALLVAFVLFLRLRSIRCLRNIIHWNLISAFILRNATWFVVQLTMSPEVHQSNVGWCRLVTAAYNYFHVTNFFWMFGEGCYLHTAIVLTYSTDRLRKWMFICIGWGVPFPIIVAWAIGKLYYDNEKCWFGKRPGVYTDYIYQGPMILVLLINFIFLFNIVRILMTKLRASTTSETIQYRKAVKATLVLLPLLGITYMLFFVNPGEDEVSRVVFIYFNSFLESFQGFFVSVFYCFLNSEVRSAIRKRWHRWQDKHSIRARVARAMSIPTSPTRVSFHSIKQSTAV


What was measured:
CRF1R receptor = molecular target: T1, CRF1R receptor; assay: cell-based or functional assay
[1] = molecular target: human corticotropin-releasing factor 2a (CRF2a receptor) (human), Q13324; assay: cell-based or functional assay
Sequence of human corticotropin-releasing factor 2a (CRF2a receptor) (human), Q13324 (Q13324 20-411): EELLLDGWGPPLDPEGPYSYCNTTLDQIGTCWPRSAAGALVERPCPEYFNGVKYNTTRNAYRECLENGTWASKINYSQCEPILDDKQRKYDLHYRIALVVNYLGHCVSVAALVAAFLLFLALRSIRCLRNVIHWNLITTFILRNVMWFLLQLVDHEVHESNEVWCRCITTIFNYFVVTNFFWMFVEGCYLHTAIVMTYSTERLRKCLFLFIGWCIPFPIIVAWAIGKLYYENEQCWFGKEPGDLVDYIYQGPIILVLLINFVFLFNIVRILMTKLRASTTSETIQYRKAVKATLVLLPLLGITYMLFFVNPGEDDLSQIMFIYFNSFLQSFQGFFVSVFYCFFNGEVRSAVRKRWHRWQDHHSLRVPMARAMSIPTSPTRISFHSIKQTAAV

| Binder | Emax (% I) (CRF1R receptor) [%] | EC50 [nM] (cAMP) [1] | EC50 (CRF1R receptor) [nM] |
| --- | --- | --- | --- |
| Ac-IVLSLDVPIKLK([γGlu-C16 diacid])KILLEQEKQKKQREQAETN[Aib]QILAQV-NH2 (SMILES CC[C@H](C)[C@H](NC(C)=O)C(=O)N[C@H](C(=O)N[C@@H](CC(C)C)C(=O)N[C@@H](CO)C(=O)N[C@@H](CC(C)C)C(=O)N[C@@H](CC(=O)O)C(=O)N[C@H](C(=O)N1CCC[C@H]1C(=O)N[C@H](C(=O)N[C@@H](CCCCN)C(=O)N[C@@H](CC(C)C)C(=O)N[C@@H](CCCCNC(=O)CC[C@H](NC(=O)CCCCCCCCCCCCCCC(=O)O)C(=O)O)C(=O)N[C@@H](CCCCN)C(=O)N[C@H](C(=O)N[C@@H](CC(C)C)C(=O)N[C@@H](CC(C)C)C(=O)N[C@@H](CCC(=O)O)C(=O)N[C@@H](CCC(N)=O)C(=O)N[C@@H](CCC(=O)O)C(=O)N[C@@H](CCCCN)C(=O)N[C@@H](CCC(N)=O)C(=O)N[C@@H](CCCCN)C(=O)N[C@@H](CCCCN)C(=O)N[C@@H](CCC(N)=O)C(=O)N[C@@H](CCCNC(=N)N)C(=O)N[C@@H](CCC(=O)O)C(=O)N[C@@H](CCC(N)=O)C(=O)N[C@@H](C)C(=O)N[C@@H](CCC(=O)O)C(=O)N[C@H](C(=O)N[C@@H](CC(N)=O)C(=O)NC(C)(C)C(=O)N[C@@H](CCC(N)=O)C(=O)N[C@H](C(=O)N[C@@H](CC(C)C)C(=O)N[C@@H](C)C(=O)N[C@@H](CCC(N)=O)C(=O)N[C@H](C(N)=O)C(C)C)[C@@H](C)CC)[C@@H](C)O)[C@@H](C)CC)[C@@H](C)CC)C(C)C)C(C)C) [SEQ ID NO 39] | 2 | 0.53 |  |
| Ac-IVLSLDVPIK[αMeL]K([γGlu-C16 diacid])KILLEQEKQKKQREQAETNVQILAQV-NH2 [SEQ ID NO 49] | -3 | 0.92 |  |
| Ac-IVLSLDVPIK[αMeL]K([γGlu-C16 diacid])KILLEQEKQKKQREQAETN[Aib]QILAQV-NH2 (SMILES CC[C@H](C)[C@H](NC(C)=O)C(=O)N[C@H](C(=O)N[C@@H](CC(C)C)C(=O)N[C@@H](CO)C(=O)N[C@@H](CC(C)C)C(=O)N[C@@H](CC(=O)O)C(=O)N[C@H](C(=O)N1CCC[C@H]1C(=O)N[C@H](C(=O)N[C@@H](CCCCN)C(=O)N[C@@](C)(CC(C)C)C(=O)N[C@@H](CCCCNC(=O)CC[C@H](NC(=O)CCCCCCCCCCCCCCC(=O)O)C(=O)O)C(=O)N[C@@H](CCCCN)C(=O)N[C@H](C(=O)N[C@@H](CC(C)C)C(=O)N[C@@H](CC(C)C)C(=O)N[C@@H](CCC(=O)O)C(=O)N[C@@H](CCC(N)=O)C(=O)N[C@@H](CCC(=O)O)C(=O)N[C@@H](CCCCN)C(=O)N[C@@H](CCC(N)=O)C(=O)N[C@@H](CCCCN)C(=O)N[C@@H](CCCCN)C(=O)N[C@@H](CCC(N)=O)C(=O)N[C@@H](CCCNC(=N)N)C(=O)N[C@@H](CCC(=O)O)C(=O)N[C@@H](CCC(N)=O)C(=O)N[C@@H](C)C(=O)N[C@@H](CCC(=O)O)C(=O)N[C@H](C(=O)N[C@@H](CC(N)=O)C(=O)NC(C)(C)C(=O)N[C@@H](CCC(N)=O)C(=O)N[C@H](C(=O)N[C@@H](CC(C)C)C(=O)N[C@@H](C)C(=O)N[C@@H](CCC(N)=O)C(=O)N[C@H](C(N)=O)C(C)C)[C@@H](C)CC)[C@@H](C)O)[C@@H](C)CC)[C@@H](C)CC)C(C)C)C(C)C) [SEQ ID NO 43] | 1 | 0.3 |  |
| IVLSLD[dV]PIKLK([AEEA-AEEA-γGlu-γGlu-C16 diacid])QILLKQERQKKQREQAEKNKQILEQV-NH2 [SEQ ID NO 146] | 27 | 0.1 | 100 |
| IVLSLDVPIK[αMeL]K([γGlu-C16 diacid])KILLEQEKQKKQREQAETN[Aib]QILAQV-NH2 (N-terminus assumed; SMILES CC[C@H](C)[C@H](N)C(=O)N[C@H](C(=O)N[C@@H](CC(C)C)C(=O)N[C@@H](CO)C(=O)N[C@@H](CC(C)C)C(=O)N[C@@H](CC(=O)O)C(=O)N[C@H](C(=O)N1CCC[C@H]1C(=O)N[C@H](C(=O)N[C@@H](CCCCN)C(=O)N[C@@](C)(CC(C)C)C(=O)N[C@@H](CCCCNC(=O)CC[C@H](NC(=O)CCCCCCCCCCCCCCC(=O)O)C(=O)O)C(=O)N[C@@H](CCCCN)C(=O)N[C@H](C(=O)N[C@@H](CC(C)C)C(=O)N[C@@H](CC(C)C)C(=O)N[C@@H](CCC(=O)O)C(=O)N[C@@H](CCC(N)=O)C(=O)N[C@@H](CCC(=O)O)C(=O)N[C@@H](CCCCN)C(=O)N[C@@H](CCC(N)=O)C(=O)N[C@@H](CCCCN)C(=O)N[C@@H](CCCCN)C(=O)N[C@@H](CCC(N)=O)C(=O)N[C@@H](CCCNC(=N)N)C(=O)N[C@@H](CCC(=O)O)C(=O)N[C@@H](CCC(N)=O)C(=O)N[C@@H](C)C(=O)N[C@@H](CCC(=O)O)C(=O)N[C@H](C(=O)N[C@@H](CC(N)=O)C(=O)NC(C)(C)C(=O)N[C@@H](CCC(N)=O)C(=O)N[C@H](C(=O)N[C@@H](CC(C)C)C(=O)N[C@@H](C)C(=O)N[C@@H](CCC(N)=O)C(=O)N[C@H](C(N)=O)C(C)C)[C@@H](C)CC)[C@@H](C)O)[C@@H](C)CC)[C@@H](C)CC)C(C)C)C(C)C) [SEQ ID NO 38] | 6 | 0.49 |  |
| Ac-IVLSLDVPIK[αMeL]K([γGlu-C16 diacid])Q[Aib]LLKQERQKKQREQAEKN[Aib]QILEQV-NH2 (SMILES CC[C@H](C)[C@H](NC(C)=O)C(=O)N[C@H](C(=O)N[C@@H](CC(C)C)C(=O)N[C@@H](CO)C(=O)N[C@@H](CC(C)C)C(=O)N[C@@H](CC(=O)O)C(=O)N[C@H](C(=O)N1CCC[C@H]1C(=O)N[C@H](C(=O)N[C@@H](CCCCN)C(=O)N[C@@](C)(CC(C)C)C(=O)N[C@@H](CCCCNC(=O)CC[C@H](NC(=O)CCCCCCCCCCCCCCC(=O)O)C(=O)O)C(=O)N[C@@H](CCC(N)=O)C(=O)NC(C)(C)C(=O)N[C@@H](CC(C)C)C(=O)N[C@@H](CC(C)C)C(=O)N[C@@H](CCCCN)C(=O)N[C@@H](CCC(N)=O)C(=O)N[C@@H](CCC(=O)O)C(=O)N[C@@H](CCCNC(=N)N)C(=O)N[C@@H](CCC(N)=O)C(=O)N[C@@H](CCCCN)C(=O)N[C@@H](CCCCN)C(=O)N[C@@H](CCC(N)=O)C(=O)N[C@@H](CCCNC(=N)N)C(=O)N[C@@H](CCC(=O)O)C(=O)N[C@@H](CCC(N)=O)C(=O)N[C@@H](C)C(=O)N[C@@H](CCC(=O)O)C(=O)N[C@@H](CCCCN)C(=O)N[C@@H](CC(N)=O)C(=O)NC(C)(C)C(=O)N[C@@H](CCC(N)=O)C(=O)N[C@H](C(=O)N[C@@H](CC(C)C)C(=O)N[C@@H](CCC(=O)O)C(=O)N[C@@H](CCC(N)=O)C(=O)N[C@H](C(N)=O)C(C)C)[C@@H](C)CC)[C@@H](C)CC)C(C)C)C(C)C) [SEQ ID NO 20] | 3 | 1.09 |  |
| Ac-IVLSLD[dV]PIKLK([γGlu-C16 diacid])KILLEQEKQKKQREQAETN[Aib]QILAQV-NH2 (SMILES CC[C@H](C)[C@H](NC(C)=O)C(=O)N[C@H](C(=O)N[C@@H](CC(C)C)C(=O)N[C@@H](CO)C(=O)N[C@@H](CC(C)C)C(=O)N[C@@H](CC(=O)O)C(=O)N[C@@H](C(=O)N1CCC[C@H]1C(=O)N[C@H](C(=O)N[C@@H](CCCCN)C(=O)N[C@@H](CC(C)C)C(=O)N[C@@H](CCCCNC(=O)CC[C@H](NC(=O)CCCCCCCCCCCCCCC(=O)O)C(=O)O)C(=O)N[C@@H](CCCCN)C(=O)N[C@H](C(=O)N[C@@H](CC(C)C)C(=O)N[C@@H](CC(C)C)C(=O)N[C@@H](CCC(=O)O)C(=O)N[C@@H](CCC(N)=O)C(=O)N[C@@H](CCC(=O)O)C(=O)N[C@@H](CCCCN)C(=O)N[C@@H](CCC(N)=O)C(=O)N[C@@H](CCCCN)C(=O)N[C@@H](CCCCN)C(=O)N[C@@H](CCC(N)=O)C(=O)N[C@@H](CCCNC(=N)N)C(=O)N[C@@H](CCC(=O)O)C(=O)N[C@@H](CCC(N)=O)C(=O)N[C@@H](C)C(=O)N[C@@H](CCC(=O)O)C(=O)N[C@H](C(=O)N[C@@H](CC(N)=O)C(=O)NC(C)(C)C(=O)N[C@@H](CCC(N)=O)C(=O)N[C@H](C(=O)N[C@@H](CC(C)C)C(=O)N[C@@H](C)C(=O)N[C@@H](CCC(N)=O)C(=O)N[C@H](C(N)=O)C(C)C)[C@@H](C)CC)[C@@H](C)O)[C@@H](C)CC)[C@@H](C)CC)C(C)C)C(C)C) [SEQ ID NO 40] | 0 | 0.25 |  |
| Ac-IVLSLDVPIKLK([AEEA-AEEA-γGlu-C18 diacid])KILLEQEKQKKQREQAETNVQILAQV-NH2 (SMILES CC[C@H](C)[C@H](NC(C)=O)C(=O)N[C@H](C(=O)N[C@@H](CC(C)C)C(=O)N[C@@H](CO)C(=O)N[C@@H](CC(C)C)C(=O)N[C@@H](CC(=O)O)C(=O)N[C@H](C(=O)N1CCC[C@H]1C(=O)N[C@H](C(=O)N[C@@H](CCCCN)C(=O)N[C@@H](CC(C)C)C(=O)N[C@@H](CCCCNC(=O)COCCOCCNC(=O)COCCOCCNC(=O)CC[C@H](NC(=O)CCCCCCCCCCCCCCCCC(=O)O)C(=O)O)C(=O)N[C@@H](CCCCN)C(=O)N[C@H](C(=O)N[C@@H](CC(C)C)C(=O)N[C@@H](CC(C)C)C(=O)N[C@@H](CCC(=O)O)C(=O)N[C@@H](CCC(N)=O)C(=O)N[C@@H](CCC(=O)O)C(=O)N[C@@H](CCCCN)C(=O)N[C@@H](CCC(N)=O)C(=O)N[C@@H](CCCCN)C(=O)N[C@@H](CCCCN)C(=O)N[C@@H](CCC(N)=O)C(=O)N[C@@H](CCCNC(=N)N)C(=O)N[C@@H](CCC(=O)O)C(=O)N[C@@H](CCC(N)=O)C(=O)N[C@@H](C)C(=O)N[C@@H](CCC(=O)O)C(=O)N[C@H](C(=O)N[C@@H](CC(N)=O)C(=O)N[C@H](C(=O)N[C@@H](CCC(N)=O)C(=O)N[C@H](C(=O)N[C@@H](CC(C)C)C(=O)N[C@@H](C)C(=O)N[C@@H](CCC(N)=O)C(=O)N[C@H](C(N)=O)C(C)C)[C@@H](C)CC)C(C)C)[C@@H](C)O)[C@@H](C)CC)[C@@H](C)CC)C(C)C)C(C)C) [SEQ ID NO 102] | -5 | 17.6 |  |
